Measured values published in PMC7593309, “Structural insights into Arabidopsis ethylene response factor 96 with an extended N-terminal binding to GCC box”.

Assays:
AtERF96 WT [1] = target: T1, AtERF96 WT (Arabidopsis thaliana, UniProt Q9LSX0 1-131); assay: EMSA; fEMSA: 30 mM HEPES pH 7.4, 62.5 mM NaCl, 5% glycerol, 30 min RT, gel at 4 C; FP: 30 mM HEPES pH 7.4, 250 mM NaCl, 10% glycerol, 10 nM probe final (20 nM mixed 1:1); conditions: protein: recombinant; tags: N-terminal 6xHis (pET28a); label: 5'-fluorescein on forward strand; blunt
T1 sequence (Q9LSX0 whole entry): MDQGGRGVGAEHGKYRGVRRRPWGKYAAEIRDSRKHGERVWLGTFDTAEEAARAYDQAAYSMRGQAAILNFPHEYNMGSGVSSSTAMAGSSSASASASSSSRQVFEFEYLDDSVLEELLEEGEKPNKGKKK

AtERF96 WT [2] = target: T1, AtERF96 WT; assay: fluorescence polarization; two-site fit (KdHi, KdLo); fEMSA: 30 mM HEPES pH 7.4, 62.5 mM NaCl, 5% glycerol, 30 min RT, gel at 4 C; FP: 30 mM HEPES pH 7.4, 250 mM NaCl, 10% glycerol, 10 nM probe final (20 nM mixed 1:1); conditions: protein: recombinant; tags: N-terminal 6xHis (pET28a); label: 5'-fluorescein on forward strand
AtERF96 WT [3] = target: T1, AtERF96 WT; assay: X-ray crystallography; 1.76 A; fEMSA: 30 mM HEPES pH 7.4, 62.5 mM NaCl, 5% glycerol, 30 min RT, gel at 4 C; FP: 30 mM HEPES pH 7.4, 250 mM NaCl, 10% glycerol, 10 nM probe final (20 nM mixed 1:1); conditions: protein: recombinant; tags: N-terminal 6xHis (pET28a); blunt

B1: GCC11 probe (fEMSA) (dsDNA)
DNA 1: TAGCCGCCAGC
DNA 2: GCTGGCGGCTA
AtERF96 WT [1]
  binding result: binds

B2: GCC12 (dsDNA)
DNA 1: GTAGCCGCCAGC
DNA 2: GCTGGCGGCTAC
AtERF96 WT [2]
  binding result: binds

B3: GCC11 (crystal) (dsDNA)
DNA 1: TAGCCGCCAGC
DNA 2: GCTGGCGGCTA
AtERF96 WT [3]
  binding result: binds
